The series has as its system Nc1nc2c(ncn2[C@@H]2O[C@H](COP(=O)(O)O)[C@@H](O)[C@H]2O)c(=O)[nH]1. Description: Michaelis-Menten kinetics of guanylate kinase activity. It is filed as biochemical, murine. The conditions noted are these: other: Table X. The text has this:
. […] Table X Kinetic Analysis of Fusion Proteins

murine guanylate kinase (gmk), wild-type (Mus musculus), sequence (chain, as listed by the source): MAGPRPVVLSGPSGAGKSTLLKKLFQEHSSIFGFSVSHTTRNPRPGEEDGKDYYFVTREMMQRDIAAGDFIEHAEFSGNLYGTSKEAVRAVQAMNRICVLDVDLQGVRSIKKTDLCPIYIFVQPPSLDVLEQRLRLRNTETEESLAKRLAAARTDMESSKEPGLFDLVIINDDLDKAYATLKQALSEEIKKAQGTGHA

On to “murine guanylate kinase (gmk), wild-type (Mus musculus)”, for which the Km (commonly the concentration of substrate that gives half-maximal velocity) came out at 25 µM.

The values above are taken from patent EP1914304A1.
